Reference: patent publication US20230063794A1, “STAPLED TRIAZOLE CO-AGONISTS OF THE GLUCAGON AND GLP-1 RECEPTORS” (Merck Sharp & Dohme LLC, priority 2019, published 2023)
Starred links: 1 amine or outer side, 2 acyl side, 3 side chain; linkers in the order of their positions; H or OH if unused. Positions of bridges follow the written chain, without caps; N, C: chain ends. Non-standard residues stand in square brackets, D forms with d. Residues, ends and D or L forms follow the SMILES beside them. Groups on a side chain read outwards from the residue. Triazole bridges read from a SMILES are 1,4-linked. No end group written: not given here. *: point of attachment. Peg3N3Ala = O-(2-(2-(2-azidoethoxy)ethoxy)ethyl)-L-serine, [N-]=[N+]=NCCOCCOCCOC[C@H](N[*:1])C(=O)[*:2]; Lys(N3) = [N-]=[N+]=NCCCC[C@H](N)C(=O)O; γGlu = O=C(O)[C@H](CCC(=O)[*:2])N[*:1]; Met(O2) = CS(=O)(=O)CC[C@H](N)C(=O)O; Palmitoyl = CCCCCCCCCCCCCCCC(=O)*; dPra = C#CC[C@@H](N)C(=O)O; Nle = CCCC[C@H](N)C(=O)O; Ac4c = NC1(C(=O)O)CCC1; Aib = CC(C)(N)C(=O)O

B1: TP862 (peptide)
peptide: H[Aib]QGTFTSDKSKYLD[Ac4c]RAAQDFV[dPra]WL[Met(O2)][Lys(N3)]TK-{γGlu-NH2}
modifications: triazole 24-28; not fully specified (residue 10); printed as HUQGTFTSDK(γEγEC16)SKYLDAcbRAAQDFVpra*WL2Nle(ϵN3)*T / KγE-NH2
B2: TP531 (peptide)
peptide: HXQGTFTSDKSKYLDERAAXDFVXWLLDT
modifications: D-Ser at 2; pra at 20 and Nle(εN3) at 24 cyclized to a triazole containing ring; C-terminal amide
B3: TP852 (peptide)
peptide: HXQGTFTSDXSKYLDARAAQDFVXWLLXT
modifications: D-Ser at 2; Lys 10 conjugated to γEγE-C16 fatty acid; Nle(εN3) at 24 and pra at 28 cyclized to a triazole containing ring; C-terminal amide
B4: TP835 (peptide)
peptide: HXQGTFTSDXSKYLDARAAQDFVXWLLXT
modifications: D-Ser at 2; Lys 10 conjugated to γEγE-C16 fatty acid; pra at 24 and Nle(εN3) at 28 cyclized to a triazole containing ring; C-terminal amide
B5: TP487 (peptide)
peptide: HXQGTFTSDXSKYLDERAAXDFVXWLLDT
modifications: D-Ser at 2; Lys 10 conjugated to γEγE-C16 fatty acid; Nle(εN3) at 20 and pra at 24 cyclized to a triazole containing ring; C-terminal amide
B6: TP530 (peptide)
peptide: HXQGTFTSDKSKYLDERAAXDFVXWLLDT
modifications: D-Ser at 2; Nle(εN3) at 20 and pra at 24 cyclized to a triazole containing ring; C-terminal amide
B7: TP488 (peptide)
peptide: HXQGTFTSDXSKYLDERAAXDFVXWLLDT
modifications: D-Ser at 2; Lys 10 conjugated to γEγE-C16 fatty acid; pra at 20 and Nle(εN3) at 24 cyclized to a triazole containing ring; C-terminal amide

These molecules were tested against human Glucagon receptor (GCGR) (human, UniProt P47871 26-477) (assay: cell-based or functional assay). Conditions: not given.
human Glucagon receptor (GCGR), sequence (P47871 26-477): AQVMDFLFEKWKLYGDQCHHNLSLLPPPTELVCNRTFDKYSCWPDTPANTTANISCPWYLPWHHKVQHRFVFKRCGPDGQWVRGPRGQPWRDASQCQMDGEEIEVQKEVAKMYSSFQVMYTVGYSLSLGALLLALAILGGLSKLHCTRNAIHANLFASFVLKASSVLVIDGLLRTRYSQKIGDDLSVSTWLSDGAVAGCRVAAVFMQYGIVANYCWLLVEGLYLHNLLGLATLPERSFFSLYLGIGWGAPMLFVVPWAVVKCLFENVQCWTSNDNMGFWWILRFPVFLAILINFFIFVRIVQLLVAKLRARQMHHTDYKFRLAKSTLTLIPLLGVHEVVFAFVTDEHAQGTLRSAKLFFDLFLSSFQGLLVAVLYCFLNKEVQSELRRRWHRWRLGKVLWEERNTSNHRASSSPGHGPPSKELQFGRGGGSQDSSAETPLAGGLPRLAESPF

Molecule	GCGR EC50 human (nM), cAMP activity assay
H[Aib]QGTFTSDK([γGlu-γGlu-Palmitoyl])SKYLD[Ac4c][dPra]AAQ[Lys(N3)]FVQWL[Met(O2)]DTK-{γGlu-NH2} (triazole 17-21) [TP858]	0.064 nM
B1	0.139 nM
H[dS]QGTFTSDK([γGlu-γGlu-Palmitoyl])SKYLDA[dPra]AAQDFV[Peg3N3Ala]WLLDT-NH2 (triazole 17-24) [TP920]	0.115 nM
B2	0.323 nM
H[dS]QGTFTSDK([γGlu-γGlu-Palmitoyl])SKYLD[dPra]RAA[Lys(N3)]DFVQWLLDT-NH2 (triazole 16-20) [TP731]	0.03 nM
H[dS]QGTFTSDK([γGlu-γGlu-Palmitoyl])SKYLDA[dPra]AAQ[Lys(N3)]FVQWLLDT-NH2 (triazole 17-21) [TP733]	0.279 nM
H[Aib]QGTFTSDK([γGlu-γGlu-Palmitoyl])SKYLD[Aib]RAAQDFV[dPra]WL[Met(O2)][Lys(N3)]TK-{γGlu-NH2} (triazole 24-28) [TP851]	0.109 nM
H[Aib]QGTFTSDK([γGlu-γGlu-Palmitoyl])SKYLD[Aib][dPra]AAQ[Lys(N3)]FVQWL[Met(O2)]DTK-{γGlu-NH2} (triazole 17-21) [TP849]	0.25 nM
H[Aib]QGTFTSDK([γGlu-γGlu-Palmitoyl])SKYLD[Aib]RAA[dPra]DFV[Lys(N3)]WL[Met(O2)]DTK-{γGlu-NH2} (triazole 20-24) [TP847]	0.107 nM
H[Aib]QGTFTSDKSKYLD[Aib]RAAQDFV[Lys(N3)]WLM[dPra]TK-{γGlu-NH2} (triazole 24-28) [TP532]	1.07 nM
H[Aib]QGTFTSDK([γGlu-γGlu-Palmitoyl])SKYLD[dPra]RAA[Lys(N3)]DFVQWL[Nle]DT-NH2 (triazole 16-20) [TP837]	0.048 nM
H[Aib]QGTFTSDK([γGlu-γGlu-Palmitoyl])SKYLD[Aib][dPra]AAQ[Lys(N3)]FVQWL[Nle]DT-NH2 (triazole 17-21) [TP841]	0.819 nM
H[dS]QGTFTSDK([γGlu-γGlu-Palmitoyl])SKYLDARAA[dPra]DFV[Lys(N3)]WLLDT-NH2 (triazole 20-24) [TP732]	0.052 nM
H[Aib]QGTFTSDKSKYLD[Aib]RAAQDFV[dPra]WLM[Lys(N3)]TK-{γGlu-NH2} (triazole 24-28; also: lower-case v at 23 not defined) [TP533]	5 nM
H[Aib]QGTFTSDK([γGlu-γGlu-Palmitoyl])SKYLD[dPra]RAA[Lys(N3)]DFVQWL[Met(O2)]DTK-{γGlu-NH2} (triazole 16-20) [TP845]	0.134 nM
B3	0.059 nM
B4	0.143 nM
B5	0.09 nM
H[Aib]QGTFTSDK([γGlu-γGlu-Palmitoyl])SKYLD[Ac4c]RAA[dPra]DFV[Lys(N3)]WL[Met(O2)]DTK-{γGlu-NH2} (triazole 20-24) [TP860]	0.077 nM
B6	0.06 nM
B7	0.04 nM

The molecules below were run against human GLP-1 receptor (GLP1R) (human, UniProt P43220 24-463) (assay: cell-based or functional assay). Conditions: not given.

Molecule	GLP1R EC50 human (nM), cAMP activity assay
H[Aib]QGTFTSDK([γGlu-γGlu-Palmitoyl])SKYLD[Ac4c][dPra]AAQ[Lys(N3)]FVQWL[Met(O2)]DTK-{γGlu-NH2} (triazole 17-21) [TP858]	0.042 nM
B1	0.042 nM
H[dS]QGTFTSDK([γGlu-γGlu-Palmitoyl])SKYLDA[dPra]AAQDFV[Peg3N3Ala]WLLDT-NH2 (triazole 17-24) [TP920]	0.416 nM
B2	0.168 nM
H[dS]QGTFTSDK([γGlu-γGlu-Palmitoyl])SKYLD[dPra]RAA[Lys(N3)]DFVQWLLDT-NH2 (triazole 16-20) [TP731]	0.034 nM
H[dS]QGTFTSDK([γGlu-γGlu-Palmitoyl])SKYLDA[dPra]AAQ[Lys(N3)]FVQWLLDT-NH2 (triazole 17-21) [TP733]	0.54 nM
H[Aib]QGTFTSDK([γGlu-γGlu-Palmitoyl])SKYLD[Aib]RAAQDFV[dPra]WL[Met(O2)][Lys(N3)]TK-{γGlu-NH2} (triazole 24-28) [TP851]	0.025 nM
H[Aib]QGTFTSDK([γGlu-γGlu-Palmitoyl])SKYLD[Aib][dPra]AAQ[Lys(N3)]FVQWL[Met(O2)]DTK-{γGlu-NH2} (triazole 17-21) [TP849]	0.041 nM
H[Aib]QGTFTSDK([γGlu-γGlu-Palmitoyl])SKYLD[Aib]RAA[dPra]DFV[Lys(N3)]WL[Met(O2)]DTK-{γGlu-NH2} (triazole 20-24) [TP847]	0.024 nM
H[Aib]QGTFTSDKSKYLD[Aib]RAAQDFV[Lys(N3)]WLM[dPra]TK-{γGlu-NH2} (triazole 24-28) [TP532]	0.14 nM
H[Aib]QGTFTSDK([γGlu-γGlu-Palmitoyl])SKYLD[dPra]RAA[Lys(N3)]DFVQWL[Nle]DT-NH2 (triazole 16-20) [TP837]	0.042 nM
H[Aib]QGTFTSDK([γGlu-γGlu-Palmitoyl])SKYLD[Aib][dPra]AAQ[Lys(N3)]FVQWL[Nle]DT-NH2 (triazole 17-21) [TP841]	0.414 nM
H[dS]QGTFTSDK([γGlu-γGlu-Palmitoyl])SKYLDARAA[dPra]DFV[Lys(N3)]WLLDT-NH2 (triazole 20-24) [TP732]	0.123 nM
H[Aib]QGTFTSDKSKYLD[Aib]RAAQDFV[dPra]WLM[Lys(N3)]TK-{γGlu-NH2} (triazole 24-28; also: lower-case v at 23 not defined) [TP533]	3.11 nM
H[Aib]QGTFTSDK([γGlu-γGlu-Palmitoyl])SKYLD[dPra]RAA[Lys(N3)]DFVQWL[Met(O2)]DTK-{γGlu-NH2} (triazole 16-20) [TP845]	0.027 nM
B3	0.109 nM
B4	0.199 nM
B5	0.22 nM
H[Aib]QGTFTSDK([γGlu-γGlu-Palmitoyl])SKYLD[Ac4c]RAA[dPra]DFV[Lys(N3)]WL[Met(O2)]DTK-{γGlu-NH2} (triazole 20-24) [TP860]	0.042 nM
B6	0.03 nM
B7	0.042 nM

The molecules below were run against T1, human GCGR (Homo sapiens, UniProt P47871) (assay: cAMP activity assay in cells expressing human GCGR). Conditions: cAMP production, HitHunter cAMPXS, 1 hour; assay buffer with or without 20% human serum (not given).
T1 construct: expressed in transfected cells; grown under Blasticidin and Hygromycin selection
T1 sequence (P47871 26-477): as above
Type: cell-based
Experimental: Activity of the peptides at the Glucagon receptor (GCGR) and GLP-1 receptor (GLP1R) was measured in a cAMP activity assay.
Peptides were dissolved in 100% DMSO and serially diluted to generate 10 point titrations. The peptide solutions were then transferred into 384-well assay plates (150 nL/well). Assay ready frozen cells expressing human GLP1R or human GCGR were suspended in growth media consisting of DMEM medium (GIBCO), 10% FBS (GIBCO), 1× NEAA(GIBCO), 1× P/S (GIBCO), 10 ug/ml Blasticidin (GIBCO) and 200 μg/mL Hygromycin (GIBCO). Cells were then diluted in assay buffer consisting of PBS (GIBCO), 7.5% BSA (Perkin Elmer), 100 μM RO 20-1724 (Sigma), with or without 20% human serum (MP Biomedical). The cell suspensions (15 μL) were then added to the assay plates containing the peptide solutions (30,000 cells/well for human GCGR; 10,000 cells/well for human GLP1R). The cells were incubated for 1 hour at room temperature in the dark. Production of cAMP was determined using HitHunter™ cAMPXS kits (DiscoverX) following manufacturer protocol. The plates were incubated for overnight at room temperature in the dark. Luminescence was measured using an EnVision Multilabel plate reader (Perkin Elmer). Native GLP-1 and Glucagon (Bachem) are used as control peptides. EC50 values were calculated using uses a 4 parameter logistic fit based on the Levenberg-Marquardt algorithm.

Molecule	EC50
CSCC[C@@H]1NC(=O)[C@H](CC(C)C)NC(=O)[C@H](Cc2c[nH]c3ccccc23)NC(=O)[C@H](NC(=O)[C@@H](NC(=O)[C@H](Cc2ccccc2)NC(=O)[C@H](CC(=O)O)NC(=O)[C@H](CCC(N)=O)NC(=O)[C@H](C)NC(=O)[C@H](C)NC(=O)[C@H](CCCNC(=N)N)NC(=O)C(C)(C)NC(=O)[C@H](CC(=O)O)NC(=O)[C@H](CC(C)C)NC(=O)[C@H](Cc2ccc(O)cc2)NC(=O)[C@H](CCCCN)NC(=O)[C@H](CO)NC(=O)[C@H](CCCCN)NC(=O)[C@H](CC(=O)O)NC(=O)[C@H](CO)NC(=O)[C@@H](NC(=O)[C@H](Cc2ccccc2)NC(=O)[C@@H](NC(=O)CNC(=O)[C@H](CCC(N)=O)NC(=O)C(C)(C)NC(=O)[C@@H](N)Cc2c[nH]cn2)[C@@H](C)O)[C@@H](C)O)C(C)C)Cc2cn(nn2)CCCC[C@@H](C(=O)N[C@H](C(=O)N[C@@H](CCCCN)C(=O)N[C@@H](CCC(N)=O)C(=O)O)[C@@H](C)O)NC1=O [compound 11] (H-H[Aib]QGTFTSDKSKYLD[Aib]RAAQDFV[dPra]WLM[Lys(N3)]TKQ-OH; triazole 24-28; N-terminus assumed)	≥ 5 nM

Same assay, conditions: ratio of human GCGR EC50 to human GLP1R EC50

Molecule	hGCGR/hGLP1R (hTone)
CC(C)C[C@H](NC(=O)[C@H](Cc1ccc(O)cc1)NC(=O)[C@H](CCCCN)NC(=O)[C@H](CO)NC(=O)[C@H](CCCCN)NC(=O)[C@H](CC(=O)O)NC(=O)[C@H](CO)NC(=O)[C@@H](NC(=O)[C@H](Cc1ccccc1)NC(=O)[C@@H](NC(=O)CNC(=O)[C@H](CCC(N)=O)NC(=O)[C@@H](CO)NC(=O)[C@@H](N)Cc1c[nH]cn1)[C@@H](C)O)[C@@H](C)O)C(=O)N[C@@H](CC(=O)O)C(=O)N[C@@H](CCC(=O)O)C(=O)N[C@@H](CCCNC(=N)N)C(=O)N[C@@H](C)C(=O)N[C@@H](C)C(=O)N[C@@H]1Cc2cn(nn2)CCCC[C@@H](C(=O)N[C@@H](Cc2c[nH]c3ccccc23)C(=O)N[C@@H](CC(C)C)C(=O)N[C@@H](CC(C)C)C(=O)N[C@@H](CC(=O)O)C(=O)N[C@H](C(N)=O)[C@@H](C)O)NC(=O)[C@H](C(C)C)NC(=O)[C@H](Cc2ccccc2)NC(=O)[C@H](CC(=O)O)NC1=O [compound 9] (H-H[dS]QGTFTSDKSKYLDERAA[dPra]DFV[Lys(N3)]WLLDT-NH2; triazole 20-24)	1.92
